Test results taken from patent publication US20230192768A1 (published 2023).
Where no end group is shown, it is not given here.

Target: tumor necrosis factor alpha (TNF-α) protein
Assay: ELISA: plate coated with 2 µg/ml TNF-α, FITC-labeled peptide titrated, HRP anti-FITC antibody, OD 410 nm, fitted in GraphPad Prism 5

Sequence of tumor necrosis factor alpha (TNF-α) protein (chain, as listed by the source): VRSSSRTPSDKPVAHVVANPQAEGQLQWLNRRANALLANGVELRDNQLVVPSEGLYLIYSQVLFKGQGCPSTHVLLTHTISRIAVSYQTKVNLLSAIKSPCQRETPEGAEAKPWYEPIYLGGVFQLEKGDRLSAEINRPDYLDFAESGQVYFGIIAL

B1: peptide 632 (peptide)
peptide: HYIDFRW
modifications: also: FITC label, place not given here
notes: Chemically synthesized peptide; It was used in the ELISA as the FITC-labeled peptide; also called TNF-α antagonist peptide; antagonist peptide
- Kd: 138 nM
